From patent US20110151450
Substitutions are numbered along the chain they refer to.

Assays:
Assay in all cases: cleavage_in_vitro
[1] = system: T1, AatII-HF N235A (Acetobacter aceti); conditions: NEB4, relative activity 100%; Table 1 lists pXba
T1 sequence: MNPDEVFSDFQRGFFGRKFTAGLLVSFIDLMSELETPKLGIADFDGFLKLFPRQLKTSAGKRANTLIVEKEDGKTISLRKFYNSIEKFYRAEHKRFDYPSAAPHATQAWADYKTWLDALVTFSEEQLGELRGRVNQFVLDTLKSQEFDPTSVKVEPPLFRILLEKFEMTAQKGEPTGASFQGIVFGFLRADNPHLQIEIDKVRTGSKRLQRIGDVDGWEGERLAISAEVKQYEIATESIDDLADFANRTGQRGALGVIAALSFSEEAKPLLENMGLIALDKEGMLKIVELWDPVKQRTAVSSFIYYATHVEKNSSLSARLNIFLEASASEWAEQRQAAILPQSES

[2] = system: T2, AatII-WT (Acetobacter aceti); conditions: NEB4, relative activity 50%
T2 sequence: T1 sequence with A235N

[3] = system: T3, BsaJI-HF D200A (Bacillus stearothermophilus); conditions: NEB4, relative activity 100%
T3 sequence: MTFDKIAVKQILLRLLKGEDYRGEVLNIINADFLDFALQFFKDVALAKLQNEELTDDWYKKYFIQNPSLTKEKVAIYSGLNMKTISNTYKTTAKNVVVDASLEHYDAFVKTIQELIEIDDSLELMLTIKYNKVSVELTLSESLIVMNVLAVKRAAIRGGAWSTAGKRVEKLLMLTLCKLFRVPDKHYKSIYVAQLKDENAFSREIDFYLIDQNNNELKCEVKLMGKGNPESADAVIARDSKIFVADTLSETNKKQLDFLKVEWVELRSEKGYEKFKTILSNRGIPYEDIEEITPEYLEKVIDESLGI

[4] = system: T4, BsaJI-WT (Bacillus stearothermophilus); conditions: NEB4, relative activity 100%
T4 sequence: T3 sequence with A200D

[5] = system: BsrDI-HF (BsrDIA + mutant BsrDIB) Q230A/K363A (BsrDIB) (Bacillus stearothermophilus); conditions: NEB4, relative activity 100%
[6] = system: BsrDI-WT (BsrDIA + BsrDIB) (Bacillus stearothermophilus); conditions: NEB4, relative activity 25%
[7] = system: T5, BsrFI-WT (Bacillus stearothermophilus); conditions: NEB4, relative activity 50%
T5 sequence: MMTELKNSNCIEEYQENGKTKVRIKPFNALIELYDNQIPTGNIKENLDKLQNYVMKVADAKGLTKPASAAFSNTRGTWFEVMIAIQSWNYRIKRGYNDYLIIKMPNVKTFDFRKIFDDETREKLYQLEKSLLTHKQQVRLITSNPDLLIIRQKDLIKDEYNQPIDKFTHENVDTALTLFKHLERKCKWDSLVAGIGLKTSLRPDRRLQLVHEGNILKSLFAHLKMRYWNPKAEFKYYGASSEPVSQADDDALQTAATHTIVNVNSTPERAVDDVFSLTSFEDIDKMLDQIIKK

[8] = system: T6, BstNI-HF G26T (Bacillus stearothermophilus); conditions: NEB4, relative activity 100%
T6 sequence: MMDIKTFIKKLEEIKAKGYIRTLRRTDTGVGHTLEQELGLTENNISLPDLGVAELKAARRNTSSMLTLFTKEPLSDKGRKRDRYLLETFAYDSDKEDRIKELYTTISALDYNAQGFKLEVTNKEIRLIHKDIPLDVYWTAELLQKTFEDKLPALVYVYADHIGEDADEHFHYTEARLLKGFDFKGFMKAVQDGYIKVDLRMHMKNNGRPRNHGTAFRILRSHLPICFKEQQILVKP

[9] = system: T7, BstNI-WT (Bacillus stearothermophilus); conditions: NEB4, relative activity 50%
T7 sequence: T6 sequence with T26G

[10] = system: T8, KasI-HF N251A (Kluyvera ascorbata); conditions: NEB4, relative activity 100%
T8 sequence: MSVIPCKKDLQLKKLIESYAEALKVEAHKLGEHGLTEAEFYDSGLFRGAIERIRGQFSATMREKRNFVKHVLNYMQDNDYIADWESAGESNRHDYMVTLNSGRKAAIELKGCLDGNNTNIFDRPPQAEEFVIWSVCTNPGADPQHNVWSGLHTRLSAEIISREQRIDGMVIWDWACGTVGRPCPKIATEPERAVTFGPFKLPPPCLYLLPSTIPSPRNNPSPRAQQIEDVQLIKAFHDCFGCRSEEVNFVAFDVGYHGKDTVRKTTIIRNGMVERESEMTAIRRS

[11] = system: T9, KasI-WT (Kluyvera ascorbata); conditions: NEB4, relative activity 100%
T9 sequence: T8 sequence with A251N

[12] = target: KpnI-HF D16N/D148E (Klebsiella pneumoniae) (UniProt P25237); conditions: NEB4, relative activity 100%
[13] = target: KpnI-WT (Klebsiella pneumoniae) (UniProt P25237); conditions: NEB4, relative activity 50%
[14] = system: StyI-HF K75A (Salmonella typhi); conditions: NEB4, relative activity 50%
[15] = system: StyI-WT (Salmonella typhi); conditions: NEB4, relative activity 25%

Question: What does the source list for pBR322 plasmid?
Answer: activity (fidelity index) [1]: > 1000; activity (fidelity index) [2]: 16; activity (fidelity index) [3]: > 4000; activity (fidelity index) [4]: 64; activity (fidelity index) [5]: > 1000; activity (fidelity index) [6]: 0.5; activity (fidelity index) [7]: 16; activity (fidelity index) [8]: 500; activity (fidelity index) [9]: 4; activity (fidelity index) [10]: > 16000; activity (fidelity index) [11]: 4

Question: pXba plasmid, KpnI sites was tested. Which activity (fidelity index) [12] did it give?
Answer: > 1e+06

Question: And the activity (fidelity index) [13]?
Answer: 4

Question: Which results are given for lambda DNA, StyI sites?
Answer: activity (fidelity index) [14]: 4000; activity (fidelity index) [15]: 16
